Reference: the MegaScale stability set (Tsuboyama et al. 2023)

B1: EEHEE_rd4_0647 (parent)
chain: MQVTWGNVTVTFSNPEEAKKYAEKVARKLGGQVELHNGQFRIK
B2: HEEH_KT_rd6_0790 (parent)
chain: SEEEEEEWRRAKERGEEIIILGILWKPNDEEAERRIKEALRRV

Variants of: B1
Assay: folding stability dG (cDNA display proteolysis); higher = more stable
Conditions: PBS, room temperature

Folding stability dG [kcal/mol]: each site, then its substitutions
I42: Y 0.752; G 0.609; K 0.538; N 0.564; A 0.487; C 1.95; Q 0.449; P 0.784; V 2.52; R 0.514; S 0.574; T 0.547; L 1.09; M 0.646; D 0.522; E 0.453; W 1.13; H 0.692; F 1.1
F40: L 2.85; H 1.07; V 1.46; Q 0.812; W 3.25; K 0.481; T 0.626; S 0.308; N 0.635; P 0.658; I 2.49; M 1.95; Y 3.2; R 0.666
R41: A 2.05; H 3.02; N 2.37; P 0.495; W 3.15; L 3.16; Y 3.35; I 3.53; F 3.5; T 2.84; S 2.11; D 1.31; V 3.5; G 1.3; M 2.95; E 2.25; C 2.94; Q 2.66; K 2.53
K43: N 2.59; I 3.52; E 2.28; L 3.2; R 2.98; Y 2.88; C 3.45; M 2.86; V 3.52; W 2.67; D 1.93; H 2.66; Q 2.59; G 2.04; F 2.96; P 1.8; S 2.64; A 2.57; T 3.14

Variants of: B2
Assay: as above
Conditions: PBS, room temperature

Folding stability dG [kcal/mol]: each site, then its substitutions
E7: P 1.32; N 2.54; Q 2.44; T 2; G 1.81; D 1.99; L 2.65; I 2.36; A 2.78; R 2.97; S 2.31; W 2.86; F 2.91; Y 2.19; V 2.09; H 2.14; M 2.62; C 2.59; K 2.9
E4: S 2.21; I 3.14; A 2.68; L 3.4; W 3.35; Y 2.93; N 1.94; M 2.82; F 2.78; K 1.92; V 2.71; T 2.29; D 2.17; R 2.03; Q 2.2; P 2.5; G 2.04; H 2.41
R9: F 1.85; A 1.91; Q 1.96; H 1.83; K 1.96; N 1.85; L 2.11; C 1.75; E 1.94; I 1.94; W 1.92; P 0.985; M 1.9; T 1.74; D 1.36; S 1.62; V 1.75; G 1.31; Y 1.95
R10: L 1.82; F 1.56; K 2.04; D 1.2; T 1.55; V 1.72; Q 1.81; P 0.8; M 1.86; S 1.5; C 2.25; Y 1.69; W 1.77; H 1.76; A 1.82; E 1.33; I 1.8; G 1.56; N 1.69
E3: A 2.33; G 2.33; W 2.5; V 2.33; P 2.29; Q 2.33; S 2.49; Y 2.44; F 2.37; N 2.36; I 2.32; H 2.33; T 2.36; D 2.35; L 2.28; M 2.24; K 2.46; R 2.4
E2: D 2.16; M 2.45; T 2.49; L 2.5; H 2.52; G 2.34; N 2.27; R 2.39; Q 2.29; W 2.54; V 2.33; A 2.2; K 2.19; S 2.61; I 2.44; Y 2.58; F 2.7; P 2.21; C 2.63
K12: R 2.07; Q 1.9; D 1.06; M 2.37; F 2.13; H 1.96; V 1.89; C 2.01; N 1.3; A 1.59; L 1.86; T 1.59; P 1.02; G 1.07; W 2.43; S 1.44; Y 2.2; E 0.988; I 1.97
R14: Y 1.68; H 1.67; Q 1.83; S 1.92; D 1.49; G 1.42; N 1.97; I 1.92; F 1.67; T 1.79; M 1.88; E 1.68; L 2.05; A 2.04; K 2.12; P 1.09; W 1.58; V 1.76
G15: A 1.39; C 2.43; D 1.25
E5: M 2.1; L 2.17; G 1.41; D 1.93; I 1.95; Y 2.2; N 1.83; K 1.36; H 1.8; T 1.79; R 1.47; P 1.91; F 2.13; A 1.74; W 2.42; S 1.73; V 1.73; Q 1.6
E6: W 2.09; Y 2.08; V 1.64; A 1.99; K 1.72; S 1.63; C 2.44; D 2.09; T 1.58; H 1.61; N 1.85; M 1.87; L 1.93; R 1.65; I 1.77; Q 1.72; F 1.93; G 1.46; P 1.35
W8: P 1; Y 1.72; E 0.744; A 0.975; R 0.881; M 1.34; G 0.818; L 1.95; S 0.793; C 1.67; V 1.12; F 2.31; T 0.835; K 0.821; D 0.922; Q 0.919; I 1.48; H 0.824; N 0.676
S1: E 2.23; A 2.38; F 2.71; Y 2.74; H 2.67; L 2.55; G 2.63; W 2.77; I 2.61; Q 2.15; R 2.18; V 2.55; T 2.36; M 2.5; K 2.1; P 2.23; D 2.12; C 2.82; N 2.18
E13: Y 1.78; L 2.4; V 1.94; H 1.68; F 1.77; D 1.93; Q 2.15; K 1.86; G 1.49; N 1.69; T 1.77; P 0.785; A 2.22; S 2.1; W 1.78; I 2.04; M 2.23; R 1.77
A11: P 1.03; N 1.28; T 1.26; V 1.75; S 1.65; M 1.94; H 1.6; K 1.37; W 2.05; G 1.22; L 2.14; Y 1.95; R 1.62; E 1.05; Q 1.2; I 2.52; D 0.949; F 1.89
